In patent publication US12697366B2, “Thermogenic compositions and methods” (Ohio State Innovation Foundation, priority 2016, dated 2026):

Tests used:
[1] = test system: 3T3-L1 preadipocytes; assay: FD-glucose uptake in 3T3-L1 preadipocytes; assay type: cell-based, mouse; settings: mouse recombinant IGFBP4; human insulin 10 μg/mL; 90 min
Protocol: Non-differentiated, 90% confluent 3T3-L1 cells were starved with glucose-deprived medium for 40 min. Then cells were treated in the presence and absence of different concentrations of nanoscaffold #2 and bovine insulin (200 μg/mL), all of reagents dissolved in the same glucose-deprived medium but containing fluorescent-D (FD)-glucose for 80 min. Thereafter, the FD glucose uptake was measured according to manufacturer's instructions (Cayman Chemical, USA, cat #600471). […] Non-differentiated, 90% confluent 3T3-L1 cells treated in the presence and absence of different concentrations of nanoscaffold #2 and bovine insulin (10 μg/mL) or mouse epiregulin (EREG, 0.05 μg/mL) and incubated for 24 h. Then cells were starved with glucose-deprived medium for 40 min and, then incubated with fluorescent-D (FD)-glucose for 80 min. Thereafter, the FD glucose uptake was measured according to manufacturer's instructions (Cayman Chemical, USA, cat #600471). Data are shown as percent of uptake in the presence of insulin (100%).
Non-differentiated, 90% confluent 3T3-L1 cells treated in the presence of bovine insulin (10 μg/mL), mouse epiregulin (EREG, 0.05 μg/mL), or their combinations and incubated for 24 h. Then cells were starved with glucose-deprived medium for 40 min and, then incubated with fluorescent-D (FD)-glucose for 80 min. Thereafter, the FD glucose uptake was measured according to manufacturer's instructions (Cayman Chemical, USA, cat #600471).
Non-differentiated, 90% confluent 3T3-L1 cells were starved with glucose-deprived medium for 50 min. Then cells were treated in the presence and absence of different concentrations of mouse recombinant IGFBP4 with and without nanoscaffold #2 and human insulin (10 μg/mL). All of reagents were dissolved in the same glucose-deprived medium but containing fluorescent-D (FD)-glucose for 90 min. Thereafter, the FD glucose uptake was measured according to manufacturer's instructions (Cayman Chemical, USA, cat #600471).
Glucose uptake assay was performed using glucose uptake cell-based assay kit (Cayman Chemical, Ann Arbor, MI). 3T3-L1 or human preadipocytes were cultured at a density of 5×10^4 per well into a 96-well plate (n=7) in high glucose media and grown overnight. Old cell culture medium was removed the next day and washed with PBS to remove residual glucose. Supplied 2-deoxy-2-[(7-nitro-2,1,3-benzoxadiazol-4-yl)amino]-D-glucose) (2-NBDG) was diluted to 150 μg/mL in DMEM medium without glucose, phenol red, L-glutamine, sodium pyruvate, and HEPES (Life technologies, Grand Island, New York). 100 μL of 2-NBDG glucose free medium with or without recombinant EREG and other treatments was added to the plated cells. After incubating at 37° C. for 30 minutes, cells were washed gently two times with 200 μL of glucose assay buffer. 100 μL of the assay buffer was added to each well and measured for fluorescence at an excitation/emission of 485/535 nm.
Fluorescence glucose uptake (FD-glucose assay) was performed as described PMID: 32065973, using insulin, 1.7 μM and different AACs at concentration 0.1 μM.
FD-glucose uptake in mouse 3T3-L1 preadipocytes (n=8 per treatment) treated with vehicle (Veh; PBS, open bar) or hINS (1.7 μM), mouse leptin (mLep; 12.5 nM, hatched bar), or AAC2 (0.1 μM black bar) in the presence and absence of GLUT1 inhibitor (BAY-876; 10 nM in DMSO). Cells were pre-treated with or without BAY-876 for 40 min and then FD glucose and treatment reagents were added for additional 80 min of incubation. Data (%) was normalized to FD-glucose uptake in control (Veh) 3T3-L1 cells without inhibitor (100%). Student's independent t-test.

[2] = test system: ob/ob mice; assay: AAC2, IGFBP4 and AAC2-IGFBP4 treatment of ob/ob mice; assay type: in vivo, mouse; settings: ELISA, end of study
Protocol: A study was performed in ob/ob mouse model of obesity, insulin resistance, and type 2 diabetes. Treatment groups (n=5) included vehicle (non-treated control), AAC2 nanofiber alone, IGFBP4 peptide alone, and AAC2-IGFBP4 peptide bound to nanofiber. 5-week old male Lep^ob mice (ob/ob mice, Jackson #000632-B6.Cg-Lepob/J, Homozygous for Lepob) were randomized into four groups (n=5/group). After 1 week assimilation period, mice were injected (10 μl/g body weight (BW)) into scapular region every 48 h for 4 weeks with: • Group 1: PBS vehicle control, • Group 2: 1 nmol AAC2/g BW, • Group 3: 0.0187 nmol human insulin-like growth factor binding protein 4 (hIGFBP4, Peprotech #350-05B), or • Group 4: AAC2/hIGFBP4 combination (1 nmol AAC2 and 0.0187 nmol hIGFBP4/g BW were assembled into complex prior to injection)

B1: IGFBP4: recombinant insulin-like growth factor binding protein 4 (protein)
chain: DEAIHCPPCSEEKLARCRPPVGCEELVREPGCGCCATCALGLGMPCGVYTPRCGSGLRCYPPRGVEKPLHTLMHGQGVCMELAEIEAIQESLQPSDKDEGDHPNNSFSPCSAHDRRCLQKHFAKIRDRSTSGGKMKVNGAPREDARPVPQGSCQSELHRALERLAASQSRTHEDLYIIPIPNCDRNGNFHPKQCHPALDGQRGKCWCVDRKTGVKLPGGLEPKGELDCHQLADSFRE
- glucose uptake, concentration compared with insulin [1]: improves glucose uptake at 100 lower concentration than insulin
- hyperinsulinemia (insulin levels in the blood) [2]: reduction
